Assay results: patent US20100150916A1 (UNIVERSITAET STUTTGART, published 2010)

Columns and labels:
[1] = target: T1, TNFR2-Fas chimeric receptor (TNFR2-ED and Fas) on mouse embryonic fibroblasts (UniProt P20333 23-257; P25445 191-335); assay: indirect immunofluorescence flow cytometry on transfected mouse embryonic fibroblasts
T1 construct: extracellular domain;domain: cytoplasmic domain; Stably expressed on mouse embryonic fibroblasts
T1 sequence (looked up): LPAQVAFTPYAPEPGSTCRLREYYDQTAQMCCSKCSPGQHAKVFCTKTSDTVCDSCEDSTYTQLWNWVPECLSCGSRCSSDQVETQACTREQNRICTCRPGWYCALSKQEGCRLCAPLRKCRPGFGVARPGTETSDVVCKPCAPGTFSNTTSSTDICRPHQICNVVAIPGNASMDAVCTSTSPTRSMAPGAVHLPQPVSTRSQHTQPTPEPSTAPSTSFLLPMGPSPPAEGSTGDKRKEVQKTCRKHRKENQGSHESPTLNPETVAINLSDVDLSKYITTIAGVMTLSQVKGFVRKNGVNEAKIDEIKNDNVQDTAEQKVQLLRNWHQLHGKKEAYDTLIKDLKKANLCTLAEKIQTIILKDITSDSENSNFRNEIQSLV
Protocol: These transfectants were incubated on ice for two hours with 2.5 μg/ml of IZI-06.1-Fab (A-C, E, white histograms), the TNFR1-specific antibody mAb225 (D and F, white histograms), the TNFR2-specific antibody 80M2 (B, white+bold histogram) or were only treated with secondary antibodies as control (gray histograms). The incubation buffer was PBA (PBS+0.05% bovine serum albumin+0.02% NaN3). Cells were incubated with FITC-labeled secondary antibodies (80M2 and mAb225: Goat anti-murine IgG; IZI-06.1 Fab: Goat anti-HIS-tag) and cells were analyzed by flow cytometry. Cells were gated for viable cells and total fluorescence intensities (MnX) are given for each antibody. (Con=control values).
A His-tag positive IZI-06.1-Fab is used to determine specificity of TNFR1 binding or TNFR1-Fas binding, respectively as well as for characterization of the epitope recognized by the antibody derivative. […] This construct, however, is readily detected by another TNFR1-specific mab, mab225 (FIG. 7D).

[2] = target: T2, TNFR1-Fas chimeric receptor (extracellular domain of TNFR1 and cytoplasmic domain of death receptor Fas) on … (human, UniProt P19438 30-211; P25445 191-335); assay: saturation binding of 125I-labelled Fab to TNFR1-Fas positive mouse fibroblasts on ice, one-site hyperbola and Scatchard plot
T2 construct: extracellular domain;domain: cytoplasmic domain; Stably expressed on mouse embryonic fibroblasts; also called TNFR1-Fas chimera
T2 sequence (looked up): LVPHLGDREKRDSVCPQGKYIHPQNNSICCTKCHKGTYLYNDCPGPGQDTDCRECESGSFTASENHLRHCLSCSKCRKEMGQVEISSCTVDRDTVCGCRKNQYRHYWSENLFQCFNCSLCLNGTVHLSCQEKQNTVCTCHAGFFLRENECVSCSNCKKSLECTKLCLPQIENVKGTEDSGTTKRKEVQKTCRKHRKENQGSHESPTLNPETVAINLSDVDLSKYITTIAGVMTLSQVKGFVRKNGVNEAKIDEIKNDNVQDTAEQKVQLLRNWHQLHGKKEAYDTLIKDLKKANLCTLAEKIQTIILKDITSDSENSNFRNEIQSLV
Protocol: Nonspecific binding has been subtracted.
To determine the affinity (KD value) of IZI-06.1 Fab, 200.000 TNFR1-Fas positive cells are incubated on ice for three hours with increasing concentrations of labelled IZI-06.1 (2.5-50 ng in a total volume of 150 μl). As binding buffer, phosphate buffered saline+2% fetal calf serum+0.02% NaN₃ is used. Non-specific binding is determined by co-incubating cells with the 180-fold respective concentration of unlabelled IZI-06.1. Bound ¹²⁵I-Fab is determined with a gamma-counter and resulting data is used to fit a one-site binding hyperbola that contains the saturation binding constant KD: […]

B1: IZI-06.1 Fab (Fab, V domains shown)
VH: QVQLVQSGAEVKKPGSSVKVSCKASGYTFTDFYINWVRQAPGQGLEWIGEIYPYSGHAYYNEKFKARVTITADKSTSTAYMELSSLRSEDTAVYYCARWDFLDYWGQGTTVTVSS
VL: DIVMTQSPLSLPVTPGEPASISCRSSQSLLHSNGNTYLHWYLQKPGQSPQLLIYTVSNRFSGVPDRFSGSGSGTDFTLKISRVEAEDVGVYYCSQSTHVPYTFGGGTKVEIKR
modifications: 125I-labelled (chloramine T method) in the saturation binding study
notes: Fab expressed in the E. coli periplasm; the pelB leader is removed; also called humanized H398-Fab; Fab IZI-06.1; not shown: CH1 domain of the human immunoglobulin gamma1 heavy chain
**Q.** Does B1 bind [1]?
**A.** Result: no binding (tested: 2.5 µg/ml)

**Q.** And the Kd [2]?
**A.** Its Kd is 0.778 nM.
